Laboratory results taken from PMC3127752.

Key:
[1] = system: T1, SO2426 (Shewanella oneidensis MR-1), ORF:71750797; test: EMSA; conditions: DIG-11-dUTP incorporated (dTTP:DIG-dUTP 1:6 mix), 0.5X EMSA buffer [5 mM Tris-Cl pH 8.0, 75 mM KCl, 0.05 mM DTT, 0.05 mM EDTA, 6% glycerol], 5 mM MgCl2, 20 mM acetyl phosphate, 0.2 ug/ul poly(dI:dC)
T1 sequence: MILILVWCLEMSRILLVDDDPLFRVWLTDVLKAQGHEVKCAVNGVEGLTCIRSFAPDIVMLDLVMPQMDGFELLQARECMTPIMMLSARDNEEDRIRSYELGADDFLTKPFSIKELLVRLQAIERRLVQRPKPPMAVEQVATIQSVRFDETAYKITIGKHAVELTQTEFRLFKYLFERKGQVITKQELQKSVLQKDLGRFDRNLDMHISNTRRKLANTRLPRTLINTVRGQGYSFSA

[2] = molecular target: T2, SO2426sh (Shewanella oneidensis MR-1) (UniProt Q8EEF6); test: EMSA; conditions: DIG-11-dUTP incorporated (dTTP:DIG-dUTP 1:6 mix), 0.5X EMSA buffer [5 mM Tris-Cl pH 8.0, 75 mM KCl, 0.05 mM DTT, 0.05 mM EDTA, 6% glycerol], 5 mM MgCl2, 20 mM acetyl phosphate, 0.2 ug/ul poly(dI:dC)
T2 sequence: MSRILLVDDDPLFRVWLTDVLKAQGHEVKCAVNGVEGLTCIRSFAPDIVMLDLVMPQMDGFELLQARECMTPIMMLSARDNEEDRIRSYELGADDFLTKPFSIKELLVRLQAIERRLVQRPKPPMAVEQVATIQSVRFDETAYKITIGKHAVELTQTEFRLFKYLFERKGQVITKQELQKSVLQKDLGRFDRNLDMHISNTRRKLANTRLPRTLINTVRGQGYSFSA

Question: “TTCGTCGTTGTAGTGAACCTGTAACAGCAAATCAGACGGAAAAATTTCTATTTAGCAACACAATGGAATGACTTACACGGCA (double strand) [so3030 upstream 83-bp probe]” was tested. Which binding [1] did it give?
Answer: The binding was “binds”.

Question: And the binding [2]?
Answer: The binding was “binds”.
